Experimental data from publication PMC11774494.

Target: 17b (CD4-induced human monoclonal antibody)
Assay: flow cytometry of transfected 293T cells: staining with 10 μg/ml 17b with or without sCD4-183, detection with APC anti-human IgG F(ab')2, arithmetic mean APC fluorescence of live (propidium iodide negative) single cells; 'All titrations …
Settings: sCD4-183 at 0, 0.078125, 0.3125, 1.25, 5, 20, 80 μM (row value in value_extra.sCD4_183_uM), 20 min staining at room temperature, CAUTION: 17b staining of cell-surface trimers with sCD4, mostly reports trimer opening, normalized per Env, one titration each. Higher = more 17b staining of cell-surface Env. 17b's epitope is exposed, numbering: unknown, sequence starts at 1
[1] = AUC over sCD4-183 0-80 μM, parent: 0.907, scale: area under the normalized MFI curve, log10 x-axis
[2] = sCD4-183 0 μM, parent: 0.0187, scale: normalized MFI
[3] = sCD4-183 0.078125 μM, parent: 0.0465, scale: normalized MFI
[4] = sCD4-183 0.3125 μM, parent: 0.0578, scale: normalized MFI
[5] = sCD4-183 1.25 μM, parent: 0.0973, scale: normalized MFI
[6] = sCD4-183 5 μM, parent: 0.198, scale: normalized MFI
[7] = sCD4-183 20 μM, parent: 0.585, scale: normalized MFI
[8] = sCD4-183 80 μM, parent: 1, scale: normalized MFI

In the case of “HIV-1 JR-CSF envelope glycoprotein gp160 (Env), P20871 JR-CSF_G324A”, the screen value [1] is reported as 2.77, the screen value [2] is reported as 0.248 and the screen value [3] is reported as 0.463. For the same substance, the screen value [4] was 0.601, the screen value [5] was 0.836 and the screen value [6] was 0.959. The screen value [7] was 0.96 and the screen value [8] was 1.
“HIV-1 JR-CSF envelope glycoprotein gp160 (Env), P20871 JR-CSF_T202A” gave a screen value [1] of 2.71, a screen value [2] of 0.144 and a screen value [3] of 0.403. The screen value [4] was 0.617, the screen value [5] was 0.843 and the screen value [6] was 1. The screen value [7] was 0.973 and the screen value [8] was 0.97.
In the case of “HIV-1 JR-CSF envelope glycoprotein gp160 (Env), P20871 JR-CSF_P470A”, the screen value [1] is reported as 1.6, the screen value [2] is reported as 0.119 and the screen value [3] is reported as 0.215. The screen value [4] was 0.298, the screen value [5] was 0.381 and the screen value [6] was 0.492. For the same substance, the screen value [7] was 0.645 and the screen value [8] was 1.
“HIV-1 JR-CSF envelope glycoprotein gp160 (Env), P20871 JR-CSF_Y173A” was tested, and the screen value [1] was 1.72, the screen value [2] was 0.137 and the screen value [3] was 0.199. It also gave a screen value [4] of 0.265, a screen value [5] of 0.357 and a screen value [6] of 0.533. For the same substance, the screen value [7] was 0.862 and the screen value [8] was 1.
For “HIV-1 JR-CSF envelope glycoprotein gp160 (Env), P20871 JR-CSF_H308A”, the screen value [1] was 0.82, the screen value [2] was 0.0195 and the screen value [3] was 0.0512. For the same substance, the screen value [4] was 0.0642, the screen value [5] was 0.0948 and the screen value [6] was 0.178. It also gave a screen value [7] of 0.449 and a screen value [8] of 1.
With “HIV-1 JR-CSF envelope glycoprotein gp160 (Env), P20871 JR-CSF_D167A” the screen value [1] was 2.23, the screen value [2] was 0.0723 and the screen value [3] was 0.181. For the same substance, the screen value [4] was 0.357, the screen value [5] was 0.663 and the screen value [6] was 0.945. It also gave a screen value [7] of 0.977 and a screen value [8] of 1.
With “HIV-1 JR-CSF envelope glycoprotein gp160 (Env), P20871 JR-CSF_N332A” the screen value [1] was 1.33, the screen value [2] was 0.0498 and the screen value [3] was 0.0842. It also gave a screen value [4] of 0.124, a screen value [5] of 0.2 and a screen value [6] of 0.456. For the same substance, the screen value [7] was 0.802 and the screen value [8] was 1.
“HIV-1 JR-CSF envelope glycoprotein gp160 (Env), P20871 JR-CSF_F210A” was tested, and the screen value [2] was 0.0285, the screen value [3] was 0.184 and the screen value [4] was 0.319. It also gave a screen value [5] of 0.527, a screen value [6] of 0.908 and a screen value [7] of 1. The screen value [8] was 0.997.
For “HIV-1 JR-CSF envelope glycoprotein gp160 (Env), P20871 JR-CSF_T303A”, the screen value [1] was 2.51, the screen value [2] was 0.128 and the screen value [3] was 0.303. The screen value [4] was 0.493, the screen value [5] was 0.793 and the screen value [6] was 0.976. It also gave a screen value [7] of 1 and a screen value [8] of 0.93.
“HIV-1 JR-CSF envelope glycoprotein gp160 (Env), P20871 JR-CSF_S199A” gave a screen value [1] of 2.18, a screen value [2] of 0.0532 and a screen value [3] of 0.183. For the same substance, the screen value [4] was 0.348, the screen value [5] was 0.593 and the screen value [6] was 0.931. It also gave a screen value [7] of 0.997 and a screen value [8] of 1.
Substance “HIV-1 JR-CSF envelope glycoprotein gp160 (Env), P20871 JR-CSF_F176A” has a screen value [1] of 3.09, a screen value [2] of 0.522 and a screen value [3] of 0.639. For the same substance, the screen value [4] was 0.761, the screen value [5] was 0.839 and the screen value [6] was 0.927. It also gave a screen value [7] of 0.946 and a screen value [8] of 1.
“HIV-1 JR-CSF envelope glycoprotein gp160 (Env), P20871 JR-CSF_K305A” showed a screen value [1] of 2.6, a screen value [2] of 0.182 and a screen value [3] of 0.383. For the same substance, the screen value [4] was 0.554, the screen value [5] was 0.754 and the screen value [6] was 0.935. The screen value [7] was 1 and the screen value [8] was 0.978.
“HIV-1 JR-CSF envelope glycoprotein gp160 (Env), P20871 JR-CSF_T303I” was tested, and the screen value [1] was 1.66, the screen value [2] was 0.0358 and the screen value [3] was 0.0925. For the same substance, the screen value [4] was 0.153, the screen value [5] was 0.308 and the screen value [6] was 0.682. It also gave a screen value [7] of 0.979 and a screen value [8] of 1.
With “HIV-1 JR-CSF envelope glycoprotein gp160 (Env), P20871 JR-CSF_Y318A” the screen value [1] was 2.53, the screen value [2] was 0.234 and the screen value [3] was 0.39. It also gave a screen value [4] of 0.538, a screen value [5] of 0.703 and a screen value [6] of 0.901. The screen value [7] was 0.923 and the screen value [8] was 1.
Substance “HIV-1 JR-CSF envelope glycoprotein gp160 (Env), P20871 JR-CSF_N301A” has a screen value [1] of 2.59, a screen value [2] of 0.178 and a screen value [3] of 0.314. For the same substance, the screen value [4] was 0.564, the screen value [5] was 0.801 and the screen value [6] was 0.974. It also gave a screen value [7] of 0.958 and a screen value [8] of 1.
“HIV-1 JR-CSF envelope glycoprotein gp160 (Env), P20871 JR-CSF_N156A” showed a screen value [1] of 2.72, a screen value [2] of 0.272 and a screen value [3] of 0.437. For the same substance, the screen value [4] was 0.595, the screen value [5] was 0.796 and the screen value [6] was 0.913. It also gave a screen value [7] of 1 and a screen value [8] of 0.984.
“HIV-1 JR-CSF envelope glycoprotein gp160 (Env), P20871 JR-CSF_N197K” gave a screen value [1] of 2.29, a screen value [2] of 0.116 and a screen value [3] of 0.231. It also gave a screen value [4] of 0.402, a screen value [5] of 0.643 and a screen value [6] of 0.91. The screen value [7] was 1 and the screen value [8] was 0.993.
With “HIV-1 JR-CSF envelope glycoprotein gp160 (Env), P20871 JR-CSF_F317A” the screen value [1] was 3.03, the screen value [2] was 0.358 and the screen value [3] was 0.582. The screen value [4] was 0.76, the screen value [5] was 0.878 and the screen value [6] was 0.942. For the same substance, the screen value [7] was 0.988 and the screen value [8] was 1.
Work on “HIV-1 JR-CSF envelope glycoprotein gp160 (Env), P20871 JR-CSF_E172A” yielded a screen value [2] of 0.0468, a screen value [3] of 0.104 and a screen value [4] of 0.136. The screen value [5] was 0.175, the screen value [6] was 0.305 and the screen value [7] was 0.636. For the same substance, the screen value [8] was 1.
“HIV-1 JR-CSF envelope glycoprotein gp160 (Env), P20871 JR-CSF_I323A” gave a screen value [1] of 2.75, a screen value [2] of 0.211 and a screen value [3] of 0.421. The screen value [4] was 0.606, the screen value [5] was 0.838 and the screen value [6] was 0.988. For the same substance, the screen value [7] was 1 and the screen value [8] was 0.946.
In the case of “HIV-1 JR-CSF envelope glycoprotein gp160 (Env), P20871 JR-CSF_V127A”, the screen value [1] is reported as 2.51, the screen value [2] is reported as 0.217 and the screen value [3] is reported as 0.347. It also gave a screen value [4] of 0.491, a screen value [5] of 0.715 and a screen value [6] of 0.915. It also gave a screen value [7] of 1 and a screen value [8] of 0.951.
For “HIV-1 JR-CSF envelope glycoprotein gp160 (Env), P20871 JR-CSF_I309A”, the screen value [1] was 3.03, the screen value [2] was 0.326 and the screen value [3] was 0.555. The screen value [4] was 0.777, the screen value [5] was 0.912 and the screen value [6] was 0.974. It also gave a screen value [7] of 0.97 and a screen value [8] of 1.
